Values quoted from earlier work as cited in PMC4004251.

Tests used:
Settings in all cases: folded GB1 (the article states the structure is stable above pH 3)
Glu42 = Glu42 (UniProt position 268, NGVDGEWTYDD)
Glu27 = Glu27 (UniProt position 253, DAATAEKVFKQ)
Glu15 = Glu15 (UniProt position 241, KTLKGETTTEA)

In the case of “Immunoglobulin G-binding protein G, B1 domain (GB1) (Streptococcus sp. group G)”, the pKa (Glu42) is listed as “about 4.5”, the pKa (Glu27) is listed as “about 4.5” and the pKa (Glu15) is listed as “near 4.5”.
